Reference: patent US20150299281A1 (ZEALAND PHARMA A S, published 2015)
Numbered stars: 1 amine (or outer) side, 2 acyl side, 3 side chain; on linkers, the order of the positions; unused ones are H or OH. Square brackets hold non-standard residues; d marks the D form. Side chains are listed from the residue outwards. * marks the point of attachment. γGlu = O=C(O)[C@H](CCC(=O)[*:2])N[*:1]; Palmitoyl = CCCCCCCCCCCCCCCC(=O)*; Aib = CC(C)(N)C(=O)O

What was measured:
human GIP receptor = target: T1, human GIP receptor (human, UniProt P48546 22-466); assay: cell-based or functional assay
T1 sequence (looked up): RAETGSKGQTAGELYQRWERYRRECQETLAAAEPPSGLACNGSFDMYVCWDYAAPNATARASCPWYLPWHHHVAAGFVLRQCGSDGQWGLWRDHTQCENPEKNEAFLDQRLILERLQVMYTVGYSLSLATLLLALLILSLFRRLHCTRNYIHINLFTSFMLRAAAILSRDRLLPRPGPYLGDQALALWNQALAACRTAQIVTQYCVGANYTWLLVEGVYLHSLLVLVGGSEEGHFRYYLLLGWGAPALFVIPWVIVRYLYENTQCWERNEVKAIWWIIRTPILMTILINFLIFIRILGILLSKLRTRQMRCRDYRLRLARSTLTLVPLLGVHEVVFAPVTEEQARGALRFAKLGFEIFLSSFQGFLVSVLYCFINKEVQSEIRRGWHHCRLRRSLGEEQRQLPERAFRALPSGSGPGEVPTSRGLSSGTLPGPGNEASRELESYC

human GLP-1 receptor = human GLP-1 receptor (human, UniProt P43220 24-463); assay: cell-based or functional assay

B1: Compound 49 (peptide)
peptide: H-Y[Aib]EGTFTSDYSKYLDEK([γGlu-Palmitoyl])AAKDFIEWLESA-NH2
SMILES: CCCCCCCCCCCCCCCC(=O)N[C@@H](CCC(=O)NCCCC[C@H](NC(=O)[C@H](CCC(=O)O)NC(=O)[C@H](CC(=O)O)NC(=O)[C@H](CC(C)C)NC(=O)[C@H](Cc1ccc(O)cc1)NC(=O)[C@H](CCCCN)NC(=O)[C@H](CO)NC(=O)[C@H](Cc1ccc(O)cc1)NC(=O)[C@H](CC(=O)O)NC(=O)[C@H](CO)NC(=O)[C@@H](NC(=O)[C@H](Cc1ccccc1)NC(=O)[C@@H](NC(=O)CNC(=O)[C@H](CCC(=O)O)NC(=O)C(C)(C)NC(=O)[C@@H](N)Cc1ccc(O)cc1)[C@@H](C)O)[C@@H](C)O)C(=O)N[C@@H](C)C(=O)N[C@@H](C)C(=O)N[C@@H](CCCCN)C(=O)N[C@@H](CC(=O)O)C(=O)N[C@@H](Cc1ccccc1)C(=O)N[C@H](C(=O)N[C@@H](CCC(=O)O)C(=O)N[C@@H](Cc1c[nH]c2ccccc12)C(=O)N[C@@H](CC(C)C)C(=O)N[C@@H](CCC(=O)O)C(=O)N[C@@H](CO)C(=O)N[C@@H](C)C(N)=O)[C@@H](C)CC)C(=O)O
Human GIP receptor
  EC50, cAMP induction in HEK293 cells expressing human GIP R: 92 pM
Human GLP-1 receptor
  EC50, cAMP induction in HEK293 cells expressing human GLP-1 R: 49 pM

B2: Compound 48 (peptide)
peptide: H-Y[Aib]EGTFTSDYSIYLDEK([γGlu-Palmitoyl])AAKDFVEWLESA-NH2
SMILES: CCCCCCCCCCCCCCCC(=O)N[C@@H](CCC(=O)NCCCC[C@H](NC(=O)[C@H](CCC(=O)O)NC(=O)[C@H](CC(=O)O)NC(=O)[C@H](CC(C)C)NC(=O)[C@H](Cc1ccc(O)cc1)NC(=O)[C@@H](NC(=O)[C@H](CO)NC(=O)[C@H](Cc1ccc(O)cc1)NC(=O)[C@H](CC(=O)O)NC(=O)[C@H](CO)NC(=O)[C@@H](NC(=O)[C@H](Cc1ccccc1)NC(=O)[C@@H](NC(=O)CNC(=O)[C@H](CCC(=O)O)NC(=O)C(C)(C)NC(=O)[C@@H](N)Cc1ccc(O)cc1)[C@@H](C)O)[C@@H](C)O)[C@@H](C)CC)C(=O)N[C@@H](C)C(=O)N[C@@H](C)C(=O)N[C@@H](CCCCN)C(=O)N[C@@H](CC(=O)O)C(=O)N[C@@H](Cc1ccccc1)C(=O)N[C@H](C(=O)N[C@@H](CCC(=O)O)C(=O)N[C@@H](Cc1c[nH]c2ccccc12)C(=O)N[C@@H](CC(C)C)C(=O)N[C@@H](CCC(=O)O)C(=O)N[C@@H](CO)C(=O)N[C@@H](C)C(N)=O)C(C)C)C(=O)O
Human GIP receptor
  EC50, cAMP induction in HEK293 cells expressing human GIP R: 61 pM
Human GLP-1 receptor
  EC50, cAMP induction in HEK293 cells expressing human GLP-1 R: 41 pM

B3: Compound 51 (peptide)
peptide: H-Y[Aib]EGTFTSDYSKYLDSK([γGlu-Palmitoyl])AAHDFVEWLLRA-NH2
SMILES: CCCCCCCCCCCCCCCC(=O)N[C@@H](CCC(=O)NCCCC[C@H](NC(=O)[C@H](CO)NC(=O)[C@H](CC(=O)O)NC(=O)[C@H](CC(C)C)NC(=O)[C@H](Cc1ccc(O)cc1)NC(=O)[C@H](CCCCN)NC(=O)[C@H](CO)NC(=O)[C@H](Cc1ccc(O)cc1)NC(=O)[C@H](CC(=O)O)NC(=O)[C@H](CO)NC(=O)[C@@H](NC(=O)[C@H](Cc1ccccc1)NC(=O)[C@@H](NC(=O)CNC(=O)[C@H](CCC(=O)O)NC(=O)C(C)(C)NC(=O)[C@@H](N)Cc1ccc(O)cc1)[C@@H](C)O)[C@@H](C)O)C(=O)N[C@@H](C)C(=O)N[C@@H](C)C(=O)N[C@@H](Cc1c[nH]cn1)C(=O)N[C@@H](CC(=O)O)C(=O)N[C@@H](Cc1ccccc1)C(=O)N[C@H](C(=O)N[C@@H](CCC(=O)O)C(=O)N[C@@H](Cc1c[nH]c2ccccc12)C(=O)N[C@@H](CC(C)C)C(=O)N[C@@H](CC(C)C)C(=O)N[C@@H](CCCNC(=N)N)C(=O)N[C@@H](C)C(N)=O)C(C)C)C(=O)O
Human GIP receptor
  EC50, cAMP induction in HEK293 cells expressing human GIP R: 240 pM
Human GLP-1 receptor
  EC50, cAMP induction in HEK293 cells expressing human GLP-1 R: 110 pM

B4: Compound 50 (peptide)
peptide: H-Y[Aib]EGTFTSDYSIYLDEK([γGlu-Palmitoyl])AAKDFIEWLESA-NH2
SMILES: CCCCCCCCCCCCCCCC(=O)N[C@@H](CCC(=O)NCCCC[C@H](NC(=O)[C@H](CCC(=O)O)NC(=O)[C@H](CC(=O)O)NC(=O)[C@H](CC(C)C)NC(=O)[C@H](Cc1ccc(O)cc1)NC(=O)[C@@H](NC(=O)[C@H](CO)NC(=O)[C@H](Cc1ccc(O)cc1)NC(=O)[C@H](CC(=O)O)NC(=O)[C@H](CO)NC(=O)[C@@H](NC(=O)[C@H](Cc1ccccc1)NC(=O)[C@@H](NC(=O)CNC(=O)[C@H](CCC(=O)O)NC(=O)C(C)(C)NC(=O)[C@@H](N)Cc1ccc(O)cc1)[C@@H](C)O)[C@@H](C)O)[C@@H](C)CC)C(=O)N[C@@H](C)C(=O)N[C@@H](C)C(=O)N[C@@H](CCCCN)C(=O)N[C@@H](CC(=O)O)C(=O)N[C@@H](Cc1ccccc1)C(=O)N[C@H](C(=O)N[C@@H](CCC(=O)O)C(=O)N[C@@H](Cc1c[nH]c2ccccc12)C(=O)N[C@@H](CC(C)C)C(=O)N[C@@H](CCC(=O)O)C(=O)N[C@@H](CO)C(=O)N[C@@H](C)C(N)=O)[C@@H](C)CC)C(=O)O
Human GIP receptor
  EC50, cAMP induction in HEK293 cells expressing human GIP R: 53 pM
Human GLP-1 receptor
  EC50, cAMP induction in HEK293 cells expressing human GLP-1 R: 90 pM
